Results: publication PMC11079029, “Intramolecular autoinhibition regulates the selectivity of PRPF40A tandem WW domains for proline-rich motifs” (Nature Communications, 2024)

B1: DIAPH2 (protein, UniProt O60879 1-1101, looked up)
Protein diaphanous homolog 2: MEQPGAAASGAGGGSEEPGGGRSNKRSAGNRAANEEETKNKPKLNIQIKTLADDVRDRITSFRKSTVKKEKPLIQHPIDSQVAMSEFPAAQPLYDERSLNLSEKEVLDLFEKMMEDMNLNEEKKAPLRNKDFTTKREMVVQYISATAKSGGLKNSKHECTLSSQEYVHELRSGISDEKLLNCLESLRVSLTSNPVSWVNNFGHEGLGLLLDELEKLLDKKQQENIDKKNQYKLIQCLKAFMNNKFGLQRILGDERSLLLLARAIDPKQPNMMTEIVKILSAICIVGEENILDKLLGAITTAAERNNRERFSPIVEGLENQEALQLQVACMQFINALVTSPYELDFRIHLRNEFLRSGLKTMLPDLKEKENDELDIQLKVFDENKEDDLTELSHRLNDIRAEMDDMNEVYHLLYNMLKDTAAENYFLSILQHFLLIRNDYYIRPQYYKIIEECVSQIVLHCSGMDPDFKYRQRLDIDLTHLIDSCVNKAKVEESEQKAAEFSKKFDEEFTARQEAQAELQKRDEKIKELEAEIQQLRTQAQVLSSSSGIPGPPAAPPLPGVGPPPPPPAPPLPGGAPLPPPPPPLPGMMGIPPPPPPPLLFGGPPPPPPLGGVPPPPGISLNLPYGMKQKKMYKPEVSMKRINWSKIEPTELSENCFWLRVKEDKFENPDLFAKLALNFATQIKVQKNAEALEEKKTGPTKKKVKELRILDPKTAQNLSIFLGSYRMPYEDIRNVILEVNEDMLSEALIQNLVKHLPEQKILNELAELKNEYDDLCEPEQFGVVMSSVKMLQPRLSSILFKLTFEEHINNIKPSIIAVTLACEELKKSESFNRLLELVLLVGNYMNSGSRNAQSLGFKINFLCKIRDTKSADQKTTLLHFIADICEEKYRDILKFPEELEHVESASKVSAQILKSNLASMEQQIVHLERDIKKFPQAENQHDKFVEKMTSFTKTAREQYEKLSTMHNNMMKLYENLGEYFIFDSKTVSIEEFFGDLNNFRTLFLEAVRENNKRREMEEKTRRAKLAKEKAEQEKLERQKKKKQLIDINKEGDETGVMDNLLEALQSGAAFRDRRKRIPRNPDNRRVPLERSRSRHNGAISSK
B2: SF3A1 (protein, UniProt Q15459 2-793, looked up)
Splicing factor 3A subunit 1: PAGPVQAVPPPPPVPTEPKQPTEEEASSKEDSAPSKPVVGIIYPPPEVRNIVDKTASFVARNGPEFEARIRQNEINNPKFNFLNPNDPYHAYYRHKVSEFKEGKAQEPSAAIPKVMQQQQQTTQQQLPQKVQAQVIQETIVPKEPPPEFEFIADPPSISAFDLDVVKLTAQFVARNGRQFLTQLMQKEQRNYQFDFLRPQHSLFNYFTKLVEQYTKILIPPKGLFSKLKKEAENPREVLDQVCYRVEWAKFQERERKKEEEEKEKERVAYAQIDWHDFVVVETVDFQPNEQGNFPPPTTPEELGARILIQERYEKFGESEEVEMEVESDEEDDKQEKAEEPPSQLDQDTQVQDMDEGSDDEEEGQKVPPPPETPMPPPLPPTPDQVIVRKDYDPKASKPLPPAPAPDEYLVSPITGEKIPASKMQEHMRIGLLDPRWLEQRDRSIREKQSDDEVYAPGLDIESSLKQLAERRTDIFGVEETAIGKKIGEEEIQKPEEKVTWDGHSGSMARTQQAAQANITLQEQIEAIHKAKGLVPEDDTKEKIGPSKPNEIPQQPPPPSSATNIPSSAPPITSVPRPPTMPPPVRTTVVSAVPVMPRPPMASVVRLPPGSVIAPMPPIIHAPRINVVPMPPSAPPIMAPRPPPMIVPTAFVPAPPVAPVPAPAPMPPVHPPPPMEDEPTSKKLKTEDSLMPEEEFLRRNKGPVSIKVQVPNMQDKTEWKLNGQVLVFTLPLTDQVSVIKVKIHEATGMPAGKQKLQYEGIFIKDSNSLAYYNMANGAVIHLALKERGGRKK
B3: SF3A2 (protein, UniProt Q15428 1-464, looked up)
Splicing factor 3A subunit 2: MDFQHRPGGKTGSGGVASSSESNRDRRERLRQLALETIDINKDPYFMKNHLGSYECKLCLTLHNNEGSYLAHTQGKKHQTNLARRAAKEAKEAPAQPAPEKVKVEVKKFVKIGRPGYKVTKQRDSEMGQQSLLFQIDYPEIAEGIMPRHRFMSAYEQRIEPPDRRWQYLLMAAEPYETIAFKVPSREIDKAEGKFWTHWNRETKQFFLQFHFKMEKPPAPPSLPAGPPGVKRPPPPLMNGLPPRPPLPESLPPPPPGGLPLPPMPPTGPAPSGPPGPPQLPPPAPGVHPPAPVVHPPASGVHPPAPGVHPPAPGVHPPAPGVHPPTSGVHPPAPGVHPPAPGVHPPAPGVHPPAPGVHPPAPGVHPPPSAGVHPQAPGVHPAAPAVHPQAPGVHPPAPGMHPQAPGVHPQPPGVHPSAPGVHPQPPGVHPSNPGVHPPTPMPPMLRPPLPSEGPGNIPPPPPTN
B4: SF3A3 (protein, UniProt Q12874 1-501, looked up)
Splicing factor 3A subunit 3: METILEQQRRYHEEKERLMDVMAKEMLTKKSTLRDQINSDHRTRAMQDRYMEVSGNLRDLYDDKDGLRKEELNAISGPNEFAEFYNRLKQIKEFHRKHPNEICVPMSVEFEELLKARENPSEEAQNLVEFTDEEGYGRYLDLHDCYLKYINLKASEKLDYITYLSIFDQLFDIPKERKNAEYKRYLEMLLEYLQDYTDRVKPLQDQNELFGKIQAEFEKKWENGTFPGWPKETSSALTHAGAHLDLSAFSSWEELASLGLDRLKSALLALGLKCGGTLEERAQRLFSTKGKSLESLDTSLFAKNPKSKGTKRDTERNKDIAFLEAQIYEYVEILGEQRHLTHENVQRKQARTGEEREEEEEEQISESESEDEENEIIYNPKNLPLGWDGKPIPYWLYKLHGLNINYNCEICGNYTYRGPKAFQRHFAEWRHAHGMRCLGIPNTAHFANVTQIEDAVSLWAKLKLQKASERWQPDTEEEYEDSSGNVVNKKTYEDLKRQGLL
B5: MTREX (protein, UniProt P42285 2-1042, looked up)
Exosome RNA helicase MTR4: ADAFGDELFSVFEGDSTTAAGTKKDKEKDKGKWKGPPGSADKAGKRFDGKLQSESTNNGKNKRDVDFEGTDEPIFGKKPRIEESITEDLSLADLMPRVKVQSVETVEGCTHEVALPAEEDYLPLKPRVGKAAKEYPFILDAFQREAIQCVDNNQSVLVSAHTSAGKTVCAEYAIALALREKQRVIFTSPIKALSNQKYREMYEEFQDVGLMTGDVTINPTASCLVMTTEILRSMLYRGSEVMREVAWVIFDEIHYMRDSERGVVWEETIILLPDNVHYVFLSATIPNARQFAEWICHLHKQPCHVIYTDYRPTPLQHYIFPAGGDGLHLVVDENGDFREDNFNTAMQVLRDAGDLAKGDQKGRKGGTKGPSNVFKIVKMIMERNFQPVIIFSFSKKDCEAYALQMTKLDFNTDEEKKMVEEVFSNAIDCLSDEDKKLPQVEHVLPLLKRGIGIHHGGLLPILKETIEILFSEGLIKALFATETFAMGINMPARTVLFTNARKFDGKDFRWISSGEYIQMSGRAGRRGMDDRGIVILMVDEKMSPTIGKQLLKGSADPLNSAFHLTYNMVLNLLRVEEINPEYMLEKSFYQFQHYRAIPGVVEKVKNSEEQYNKIVIPNEESVVIYYKIRQQLAKLGKEIEEYIHKPKYCLPFLQPGRLVKVKNEGDDFGWGVVVNFSKKSNVKPNSGELDPLYVVEVLLRCSKESLKNSATEAAKPAKPDEKGEMQVVPVLVHLLSAISSVRLYIPKDLRPVDNRQSVLKSIQEVQKRFPDGIPLLDPIDDMGIQDQGLKKVIQKVEAFEHRMYSHPLHNDPNLETVYTLCEKKAQIAIDIKSAKRELKKARTVLQMDELKCRKRVLRRLGFATSSDVIEMKGRVACEISSADELLLTEMMFNGLFNDLSAEQATALLSCFVFQENSSEMPKLTEQLAGPLRQMQECAKRIAKVSAEAKLEIDEETYLSSFKPHLMDVVYTWATGATFAHICKMTDVFEGSIIRCMRRLEELLRQMCQAAKAIGNTELENKFAEGITKIKRDIVFAASLYL

What follows are molecules tested on GFP-tagged PRPF40A-Nter-MUT (assay: SILAC GFP-immunoprecipitation with quantitative mass spectrometry, mutant construct). Details: quantitative MS, Hela cells, protein by gene name.
Type: binding, human (Hela cells)
Procedure: The PRPF40A N-terminal region (isoform 2, residues 1-221) was PCR-amplified from RPE1 cDNA (ATCC, Cat# CRL-4000) cDNA. The sequence was amplified in two fragments and both fragments were combined by overhang. All PCRs were carried out using Q5 Polymerase (NEB) according to manufacturer’s protocol. The resulting PRPF40A N-terminal region was cloned into a GFP-expressing pcDNA5 vector (see pcDNA5 GFP vector in ref. [28]) using Q5 Site-Directed Mutagenesis Kit (NEB). Nter-MUT, containing the PPVP/PALPP motifs changed to AAAA/AAAAA, was obtained by mutating the N-ter-WW12-containing plasmid with Q5 site-directed mutagenesis. Plasmids were transformed into DH5alpha chemically competent cells. After culturing, DNA isolation was performed with either ZymoPURE Plasmid Miniprep Kit (Zymo Research) or QIAGEN Plasmid Plus Midi Kit (Qiagen). The sequence was confirmed by Sanger Sequencing (GATC Eurofins). All used oligonucleotides are shown in Supplementary Table 6.
Hela cells (ATCC, Cat# CCL-2, RRID:CVCL_0030) were cultured in DMEM SILAC medium (Thermo Fisher) supplemented with 10% filtered FBS (Sigma-Aldrich) and 1% penicillin-streptomycin (Thermo-Fisher). The SILAC medium contains either light (Arg0, Lys0), medium (Arg6, Lys4) or heavy (Arg10, Lys8) isotopes (Cambridge Isotopes Laboratories). Hela cells were cultivated for 14 days in SILAC medium to assure sufficient isotope incorporation. For transfection, 7 × 10^6 Hela cells were seeded in a 15 cm culture dish in 20 ml of respective SILAC medium and grown for 24 h. The cells were then transfected with 20 µg of plasmids expressing either GFP (Control), GFP-tagged N-ext-WW12 or GFP-tagged-N-ext-WW12-MUT utilizing 64 µl FuGENE (Promega) (ratio 1:3.2), according to manufacturer’s protocol.
24 h post-transfection, cells were washed twice in ice-cold PBS and harvested in 1 ml mRIPA buffer (50 mM Tris, 150 mM NaCl, 1 mM EDTA, 1% NP-40, 0.1% Na-deoxycholate), supplemented with 2 µl Turbo-DNase (Thermo Fisher) and 3 µl protease-inhibitor cocktail cOmplete (Sigma-Aldrich). Cell lysates were cleared by centrifugation at 16,000 × g, 4 °C, 15 min and concentration was measured using Pierce BCA Protein Assay kit (Thermo Scientific). The expressed constructs were pulled down by incubating 2.5 mg of lysate with 20 μl GFP-nanobody agarose beads (ChromoTek, GTA-20) for 1 h at 4 °C under constant agitation. Subsequently, beads were washed three times with mRIPA buffer without supplements, then eluted in 1X NuPAGE LDS sample buffer (Thermo Scientific). To detach the proteins from the beads, the eluate was heated to 70 °C for 10 min To evaluate the success of the immunoprecipitation, input (1%) and IP samples were analyzed on a NuPAGE 4–12% Bis-Tris-Acrylamide gel (Thermo Fisher) using NuPAGE MOPS SDS running buffer (Thermo Fisher). Proteins were stained using Sypro Ruby protein gel stain (Thermo Fisher) according to manufacturer’s protocol.
The eluted proteins of three SILAC states (light, medium, heavy) were combined. The proteins were then reduced in DTT, alkylated in iodoacetamide, and purified using the SP3 paramagnetic bead approach. This was followed by overnight enzymatic digestion using trypsin (1 µg per sample) in 50 mM ammonium bicarbonate at 37 °C. The peptide solution was then purified by solid phase extraction in C18 StageTips[99].
Peptides were separated by online reverse phase liquid chromatography using the EASY-nLC 1000 system (Thermo Scientific) in a 30-cm analytical column (inner diameter: 75 μm; heated at 50 °C) packed in-house with ReproSil-Pur 120 C18-AQ 1.9-μm beads (Dr. Maisch GmbH). The gradient separation was performed through a 105-min non-linear gradient of 1.6–32% acetonitrile with 0.1% formic acid at a nanoflow rate of 225 nl/min. The eluted peptides were sprayed directly by electrospray ionization into a Q Exactive Plus Orbitrap mass spectrometer (Thermo Scientific). […]

Row | Molecule | Immunoprecipitation enrichment MUT vs WT, log2 FC
1 | B1 | 1.317
2 | B2 | 1.381
3 | B3 | 1.275
4 | B4 | 1.179
5 | B5 | 1.198
